Test results reported in patent US20260049134A1 (UNIVERSITY OF FLORIDA RESEARCH FOUNDATION, published 2026).

T1: GARS, endogenous in H929 multiple myeloma cells (human, UniProt P41250 37-739, limits assumed)
T1 construct: Native protein pulled down from H929 lysates; also called Glycyl-tRNA synthetase; GlyRS
T1 sequence: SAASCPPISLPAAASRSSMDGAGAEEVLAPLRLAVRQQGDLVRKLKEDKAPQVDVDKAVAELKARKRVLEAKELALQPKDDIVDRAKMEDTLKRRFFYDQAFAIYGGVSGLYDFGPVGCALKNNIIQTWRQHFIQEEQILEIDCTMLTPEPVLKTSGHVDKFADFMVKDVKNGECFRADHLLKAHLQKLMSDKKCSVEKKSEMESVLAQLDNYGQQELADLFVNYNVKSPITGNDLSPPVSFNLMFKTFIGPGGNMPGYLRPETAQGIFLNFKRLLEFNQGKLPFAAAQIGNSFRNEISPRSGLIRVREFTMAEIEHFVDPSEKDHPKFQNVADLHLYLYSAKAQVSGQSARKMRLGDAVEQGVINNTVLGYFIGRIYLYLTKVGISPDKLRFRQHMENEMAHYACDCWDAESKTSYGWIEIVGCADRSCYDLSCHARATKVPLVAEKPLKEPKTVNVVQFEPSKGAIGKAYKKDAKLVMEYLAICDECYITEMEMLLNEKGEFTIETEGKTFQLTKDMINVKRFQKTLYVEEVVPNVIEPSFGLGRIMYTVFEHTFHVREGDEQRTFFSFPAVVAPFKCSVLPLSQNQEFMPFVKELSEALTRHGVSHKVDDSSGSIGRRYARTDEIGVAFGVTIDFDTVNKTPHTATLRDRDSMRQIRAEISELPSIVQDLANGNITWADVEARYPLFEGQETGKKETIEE

T2: CADM1, endogenous in H929 multiple myeloma cells (human, UniProt Q9BY67 45-442)
T2 construct: Native protein on H929 cells (flow cytometry, siRNA knockdown) and in H929 lysates (IP/MS); RPMI-8226 cells were used for sorting with HW-97; also called IGSF4A
T2 sequence: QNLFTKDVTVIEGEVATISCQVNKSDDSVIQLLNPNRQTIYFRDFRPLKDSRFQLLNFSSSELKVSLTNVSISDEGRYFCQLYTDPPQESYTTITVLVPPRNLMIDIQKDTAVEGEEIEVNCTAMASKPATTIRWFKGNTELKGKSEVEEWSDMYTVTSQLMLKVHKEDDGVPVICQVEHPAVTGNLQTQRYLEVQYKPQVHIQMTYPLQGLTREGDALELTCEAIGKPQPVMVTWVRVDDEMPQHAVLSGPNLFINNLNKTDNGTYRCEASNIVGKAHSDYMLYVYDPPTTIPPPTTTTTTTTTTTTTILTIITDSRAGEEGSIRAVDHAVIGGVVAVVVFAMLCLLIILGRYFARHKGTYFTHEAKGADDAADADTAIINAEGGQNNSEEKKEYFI


What was measured:
[1] = target: T3, ICAM1, endogenous in H929 multiple myeloma cells (human, UniProt P05362 28-532); assay: flow cytometry, H929 + NT Green siRNA; None 1.35
T3 construct: Native protein on H929 cells (flow cytometry, siRNA knockdown) and in H929 lysates (IP/MS); also called CD54

[2] = target: T3, ICAM1, endogenous in H929 multiple …; assay: flow cytometry, H929 + vehicle; None 2.74
[3] = target: T3, ICAM1, endogenous in H929 multiple …; assay: flow cytometry, H929 + vehicle; None 513
[4] = target: T1, GARS, endogenous in H929 multiple …; assay: IP from H929 cell lysate, LC-MS/MS
Description: (§1) Immunoprecipitation. […] After 30 min of rocking at 4° C., and lysates were centrifuged at 18,400×g for 20 min at 4° C. Subsequently, 1-mL aliquots of the supernatants were pre-cleared twice with Protein G agarose (Thermo Fisher Scientific) by adding 50 μL of 50% resin slurry and incubating 30 min with end-over-end tumbling at 4° C., followed by centrifugation at 16,000×g for 5 min and pooling of the pre-cleared cell lysate aliquots. Representative mAbs from each cluster were immobilized on Protein G agarose at a ratio of 25 μg IgG1 per 30 μL of 50% slurry, diluted to 500 μL with Dulbecco's PBS (DPBS) and incubated for 1 h at 4° C. with tumbling, followed by centrifugation at 5,000×g for 30 s and 2 washes with lysis buffer. After the last wash, the ˜15 μL of IgG1-coated resin was blocked with 10 μL of 10% BSA (MilliporeSigma). Next, 1 mL of the pooled pre-cleared cell lysate was added to the IgG1-coated resin and incubated for 3 h at 4° C. with tumbling. […] Finally, 16 μL of the eluate (˜20%) was analyzed on a reducing SDS-PAGE gel stained with SYPRO Ruby dye (Bio-Rad Laboratories), while the rest was stored at −80° C. prior to LC-MS/MS analysis. […]

[5] = target: T2, CADM1, endogenous in H929 multiple …; assay: flow cytometry, H929 + ICAM1 siRNA; None 1.06
[6] = target: T2, CADM1, endogenous in H929 multiple …; assay: flow cytometry, H929 + PTPRG siRNA; None 2.13
[7] = target: T1, GARS, endogenous in H929 multiple …; assay: IP from H929 cell lysate, LC-MS/MS, spectral counts
Description: as §1

[8] = target: T3, ICAM1, endogenous in H929 multiple …; assay: flow cytometry, H929 + PTPRG siRNA; None 490
[9] = target: T3, ICAM1, endogenous in H929 multiple …; assay: flow cytometry, H929 + CADM1 siRNA; None 449

T3 sequence (P05362 28-532 limits assumed): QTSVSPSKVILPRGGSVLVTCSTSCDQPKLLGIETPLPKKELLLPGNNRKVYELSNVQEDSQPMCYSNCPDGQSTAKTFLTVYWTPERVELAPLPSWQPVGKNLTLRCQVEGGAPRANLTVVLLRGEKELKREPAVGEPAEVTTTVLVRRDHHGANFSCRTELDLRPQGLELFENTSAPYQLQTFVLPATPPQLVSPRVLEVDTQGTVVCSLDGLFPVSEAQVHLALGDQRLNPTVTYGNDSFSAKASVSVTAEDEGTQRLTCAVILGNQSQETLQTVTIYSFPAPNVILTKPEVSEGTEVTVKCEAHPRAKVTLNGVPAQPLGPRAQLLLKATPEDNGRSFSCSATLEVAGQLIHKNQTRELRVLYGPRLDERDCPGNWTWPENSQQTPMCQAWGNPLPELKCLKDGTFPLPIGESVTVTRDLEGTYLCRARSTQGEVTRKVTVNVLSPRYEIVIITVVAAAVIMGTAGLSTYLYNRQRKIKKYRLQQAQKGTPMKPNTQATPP

| Binder | Cells stained (%) [1] | Cells stained (%) [2] | mAb binding (MFI) [3] | binding result [4] | Cells stained (%) [5] | Cells stained (%) [6] | binding result [7] | also measured |
| --- | --- | --- | --- | --- | --- | --- | --- | --- |
| TH9-0022 (antibody, human IgG1, kappa, L234A L235A, V domains shown, also called TH9-022; negative control) VH: QSLEESGGRLVTPGTPLTLTCTVSGFSLSSYAMNWVRQAPGKGLEWIGIINSYGSTYYASWAKGRFTISKTSTTVDLKITSPTTEDTATYFCARVTYDSYGYGYAPYGMDLWGPGTLVTVSS VL: LVMTQTPSSTSNAVGGTVTIKCQASQSIGNVLAWYQQKPGQPPKLLIYAASTLASGVPSRVGGSRSGTEYTLTISGVQREDAATYYCLGSDSDSDIAFGGGTELEILR | 1.86% | 2.62% | 595 | – | – | – | – | – |
| HW-1 chimeric rabbit-human IgG1 LA/LA/PG (antibody, V domains shown, Fc-silenced (L234A/L235A/P329G) IgG1, lambda; Alexa Fluor 647-labeled in single-step flow cytometry; Prototype of cluster C-1) VH: QSLEESGGGLFKPTDTLTLTCTASGFSLGSSYAISWVRQAPGKELEWIGTIDSGRAYYARWAKSRSTITRNTNENTVTLKMTSLTAADTATYFCARDLIPTYSQDIWGPGTLVTISS VL: SFVLTQPASVQVNLGQTVSLTCTADTLSRRYASWYQQKPGQAPVLLIYRDTSRPSGVPDRFSGSSSGNTATLTISGAQAGDEADYYCATSDGSGNSYQYVFGGGTQLTVTS | – | – | – | no binding | – | – | – | – |
| HW-97 chimeric rabbit-human IgG1 LA/LA/PG (antibody, V domains shown, Fc-silenced (L234A/L235A/P329G) IgG1, lambda; Alexa Fluor 647-labeled in single-step flow cytometry; Prototype of cluster C-97) VH: QKQLVESGGRLVTPGTPLTLTCTVTGIDLSSHGMSWVRQAPGKGLEWIGVIYPSGSTWYASWARGRFTISKTSTTVDLKMTSLTTEDTATHFCARGDVGGADNNIWGPGTLVTVSS VL: SFVLTQPASVQVDLGQTVSLTCTAETLSRSYASWYQQKPGQAPVLLIYRDTSRPSGVPDRFSGSSSGNTATLTISGAQAGDEADYYCATSDGSGSSYQYVFGGGTQLTVTG | – | – | – | – | 97.1% | 94.8% | – | – |
| HW-101 chimeric rabbit-human IgG1 LA/LA/PG (antibody, V domains shown, Fc-silenced (L234A/L235A/P329G) IgG1, lambda; Alexa Fluor 647-labeled in single-step flow cytometry; Cluster C-97) VH: QEQLVESGGRLVTPGTPLTLTCKASGFSLGKYDMSWVRQAPGKGLEWIGTIYAGSGSTWYASWAKGRFTISKTSTTVDLKMTSLTTEDTATYFCARDFLGVNSIWGPGTLVTISS VL: SFVLTQPASVQVNLGQTVSLTCTADTLSRSYASWYQQKPDQAPVLLIHRDTSRPSGVPDRFSGSNSGNTATLTISGAQAGDEADYYCATSDGSGSNFHFVFGGGTQLTVTG | – | – | – | – | 93.8% | 85.3% | no binding | – |
| HW-113 chimeric rabbit-human IgG1 LA/LA/PG (antibody, V domains shown, Fc-silenced (L234A/L235A/P329G) IgG1, lambda; Alexa Fluor 647-labeled in single-step flow cytometry) VH: QKQLVESGGGLVQPGGSLTLTCTVSGFSLNKYYMGWFRQAPGKGLEWIGVISRSGDTYYSSWAKGRFTISKASTTVDLRITSPTTEDTATYFCARDASSPGFHGDRLDLWGQGTLVTVSS VL: SFVLTQPASVQVNLGQTVSLTCTADTLSRSYASWYQQKPGQAPVLLIYRDTSRPSGVPDRFSGSSSGNTATLTISGAQAGDEADYYCATSDGIGSNYLWVFGGGTQLTVTG | 99.8% | 99.8% | 49100 | – | – | – | no binding | mAb binding (MFI) [8]: 27800; mAb binding (MFI) [9]: 32600 |
| TH9-0022 (antibody, human IgG1, kappa, L234A L235A, V domains shown, also called TH9-022; negative control IgG1) VH: QSLEESGGRLVTPGTPLTLTCTVSGFSLSSYAMNWVRQAPGKGLEWIGIINSYGSTYYASWAKGRFTISKTSTTVDLKITSPTTEDTATYFCARVTYDSYGYGYAPYGMDLWGPGTLVTVSS VL: LVMTQTPSSTSNAVGGTVTIKCQASQSIGNVLAWYQQKPGQPPKLLIYAASTLASGVPSRVGGSRSGTEYTLTISGVQREDAATYYCLGSDSDSDIAFGGGTELEILR | – | – | – | no binding | – | – | – | – |
